{"source": "paper PMC12435805", "about": "(Nature Chemical Biology, 2025)", "binders": {"B1": {"name": "GbRBD1 (VHH)", "VHH": "QVQLVENGGGCVKAGGSLRLSCAVSGRTFSTAAMGWFRQAPGKEREFVAAIRWSGGSAYYADSVKGRFTISRDKAKNTVYLQMNSLKYEDTAVYYCAQTRVTRSLLSDYATWPYDYWGQGTQVMVS"}, "B2": {"name": "GbLysozyme (VHH)", "VHH": "DVQLVENGGGCVKAGGSLRLSCAASGSTDSIEYMTWFRQAPGKAREGVAALYTHTGNTYYTDSVKGRFTISQDKAKNMAYLRMDSVKSEDTAIYTCGATRKYVPVRFALDQSSYDYWGQGTQVMVSS"}, "B3": {"name": "anti-sfGFP monomeric GbEnhancer (VHH)", "VHH": "QVQLVENGGACVKPGGSLRLSCAASGFPVNRYSMRWYRQAPGKEREWVAGMSSAGDRSSYEDSVKGRFTISRDDARNTVYLQMNSLKPEDTAVYYCNVNVGFEYWGQGTQVMVS", "notes": "also called GbGFP; sfGFP Gb"}, "B4": {"name": "anti-RECQL5 wild-type nanobody (VHH)", "VHH": "QVQLVESGGGLVQAGGSLRLSCAASGSIFSINRMGWYRQAPGKQRELVAAITSGGSTNYADSVKGRFTISRDNAKNTVYLQMNSLKPEDTAIYYCEAYGTYTLAPTGEGEYDDYWGQGTQVTVS", "notes": "also called RECQL5 nanobody; anti-RECQL5 nanobody"}, "B5": {"name": "Nb5-006 (VHH)", "VHH": "VQLVENSGGGLVQAGGSLRLSCAASGSIFSINRMTWYRQAPGKEREWVAAITSGGSTNYADSVKGRFTISRDNAENTVYLQMNSLKPEDTAVYYCEAYGTYTLAPTGEGEYDDYWGQGTQVTVS"}, "B6": {"name": "anti-RECQL5 monomeric Gb5-006 (VHH)", "VHH": "QVQLVENGGGCVKAGGSLRLSCAASGSIFSINRMTWYRQAPGKEREWVAAITSGGSTNYADSVKGRFTISRDNAENTVYLQMNSLKPEDTAVYYCEAYGTYTLAPTGEGEYDDYWGQGTQVMVS", "notes": "also called G5-006; Gb equivalent"}, "B7": {"name": "truncated RECQL5 protein (11–453) (domain or fragment, UniProt O94762 11-453, looked up)", "chain": "DPERRVRSTLKKVFGFDSFKTPLQESATMAVVKGNKDVFVCMPTGAGKSLCYQLPALLAKGITIVVSPLIALIQDQVDHLLTLKVRVSSLNSKLSAQERKELLADLEREKPQTKILYITPEMAASSSFQPTLNSLVSRHLLSYLVVDEAHCVSQWGHDFRPDYLRLGALRSRLGHAPCVALTATATPQVQEDVFAALHLKKPVAIFKTPCFRANLFYDVQFKELISDPYGNLKDFCLKALGQEADKGLSGCGIVYCRTREACEQLAIELSCRGVNAKAYHAGLKASERTLVQNDWMEEKVPVIVATISFGMGVDKANVRFVAHWNIAKSMAGYYQESGRAGRDGKPSWCRLYYSRNDRDQVSFLIRKEVAKLQEKRGNKASDKATIMAFDALVTFCEELGCRHAAIAKYFGDALPACAKGCDHCQNPTAVRRRLEALERSSSW", "notes": "also called RECQ5; DNA helicase RECQL5"}}, "key": {"[1]": {"target": "SARS-CoV-2 receptor-binding domain (RBD) (SARS-CoV-2, ancestral strain assumed, UniProt P0DTC2, glycans removed; complex for cryo-EM PEGylated with NHS-PEG4-azide)"}, "hen egg white lysozyme": {"target": "hen egg white lysozyme (Gallus gallus, UniProt P00698)", "sequence (P00698 19-147)": "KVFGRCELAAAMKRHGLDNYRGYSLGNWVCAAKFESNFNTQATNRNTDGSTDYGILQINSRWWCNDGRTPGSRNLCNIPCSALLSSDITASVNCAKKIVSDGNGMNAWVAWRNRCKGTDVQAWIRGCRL"}, "superfolder GFP": {"target": "T1, superfolder GFP (Aequorea victoria, engineered …, stabilised)", "T1 construct": "also called sfGFP", "T1 sequence (P42212 other isoform, or with tags, fused parts or gaps, change not shown)": "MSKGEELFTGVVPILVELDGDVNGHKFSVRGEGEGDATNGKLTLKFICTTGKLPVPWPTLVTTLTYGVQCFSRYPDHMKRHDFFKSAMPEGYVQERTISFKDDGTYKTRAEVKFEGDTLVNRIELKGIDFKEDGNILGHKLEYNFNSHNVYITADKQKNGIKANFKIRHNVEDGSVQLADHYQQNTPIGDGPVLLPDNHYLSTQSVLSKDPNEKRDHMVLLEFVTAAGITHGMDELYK", "assay": "BLI", "settings": "both partners purified"}, "[2]": {"target": "B7", "assay": "BLI", "settings": "both partners purified"}, "[3]": {"target": "B7"}, "[4]": {"target": "T2, anti-RECQL5 homoDiGb5-006", "T2 construct": "also called homoDiGb Gb5-006", "assay": "BLI", "settings": "both partners purified"}}, "note": "Where two headings read alike, the source gives them in different places.", "data": [{"binder": "B1", "values": [{"measurement": "binding result", "setting": "[1]", "result": "binds"}]}, {"binder": "B2", "values": [{"measurement": "binding result", "setting": "hen egg white lysozyme", "result": "binds"}]}, {"binder": "B3", "values": [{"measurement": "Kd", "setting": "superfolder GFP", "result": 0.005, "unit": "µM"}]}, {"binder": "B4", "values": [{"measurement": "Kd", "setting": "[2]", "result": 1.2, "unit": "µM"}]}, {"binder": "B5", "values": [{"measurement": "Kd", "setting": "[3]", "result": 1.2, "unit": "µM"}]}, {"binder": "B6", "values": [{"measurement": "Kd", "setting": "[2]", "result": 9, "unit": "µM"}]}, {"binder": "B7", "values": [{"measurement": "Kd", "setting": "[4]", "result": 23.4, "unit": "µM"}]}]}
